Legend:
[1] = biological target: FtsZ (tubulin-like cell division protein) of E. coli, untagged (E. coli) (UniProt P0A9A6)
[2] = biological target: FtsZ (tubulin-like cell division protein) of E. coli, untagged (E. coli) (UniProt P0A9A6); remark: listed apart in the source
[3] = biological target: the molecule itself; assay: 90° angle light scattering; 5 µM FtsZ in polymerization buffer (50 mM MES, 2.5 mM MgCl2, 1 mM EGTA, 50 mM KCl, pH 6.5), assembly started with 1 mM GTP, 30°C

Binder | reduction of FtsZ's GTP hydrolysis (regenerative coupled GTPase assay), 5 µM FtsZ, ratios FtsZ:OpgH^N of 1:1 (25%), 1:1.5 (55%) and 1:2 (84%); FtsZ alone 5.1 GTP/minute/FtsZ [1] [%] | apparent critical concentration (CcApp) of FtsZ for GTP hydrolysis at 0 µM (0.69 µM), 2.5 µM (1.31 µM), 5 µM (1.85 µM) and 10 µM OpgH^N (4.08 µM) [2] [µM] | binding result [3]
OpgH^N (N-terminal cytoplasmic domain of the glucosyltransferase OpgH, residues 1-138) (domain or fragment) MNKTTEYIDAMPIAASEKAALPKTDIRAVHQALDAEHRTWAREDDSPQGSVKARLEQAWPDSLADGQLIKDDEGRDQLKAMPEAKRSSMFPDPWRTNPVGRFWDRLRGRDVTPRYLARLTKEEQESEQKWRTVGTIRR | 84 | 4.08 | –
FtsZ (tubulin-like cell division protein) of E. coli, untagged (natural protein, UniProt P0A9A6 1-383, looked up, FtsZ, cell division protein of E. coli, in its native (untagged) form; also called E. coli FtsZ; source: untagged) MFEPMELTNDAVIKVIGVGGGGGNAVEHMVRERIEGVEFFAVNTDAQALRKTAVGQTIQIGSGITKGLGAGANPEVGRNAADEDRDALRAALEGADMVFIAAGMGGGTGTGAAPVVAEVAKDLGILTVAVVTKPFNFEGKKRMAFAEQGITELSKHVDSLITIPNDKLLKVLGRGISLLDAFGAANDVLKGAVQGIAELITRPGLMNVDFADVRTVMSEMGYAMMGSGVASGEDRAEEAAEMAISSPLLEDIDLSGARGVLVNITAGFDLRLDEFETVGNTIRAFASDNATVVIGTSLDPDMNDELRVTVVATGIGMDKRPEITLVTNKQVQQPVMDRYQQHGMAPLTQEQKPVAKVVNDNAPQTAKEPDYLDIPAFLRKQAD | – | – | binds
